The values below come from patent US20240218070A1 (MERUS N V, published 2024).

The experiment concerns the target T1, mouse FAP (moFAP) expressed on 293FF cells (mouse, UniProt P97321 1-761).
T1 sequence: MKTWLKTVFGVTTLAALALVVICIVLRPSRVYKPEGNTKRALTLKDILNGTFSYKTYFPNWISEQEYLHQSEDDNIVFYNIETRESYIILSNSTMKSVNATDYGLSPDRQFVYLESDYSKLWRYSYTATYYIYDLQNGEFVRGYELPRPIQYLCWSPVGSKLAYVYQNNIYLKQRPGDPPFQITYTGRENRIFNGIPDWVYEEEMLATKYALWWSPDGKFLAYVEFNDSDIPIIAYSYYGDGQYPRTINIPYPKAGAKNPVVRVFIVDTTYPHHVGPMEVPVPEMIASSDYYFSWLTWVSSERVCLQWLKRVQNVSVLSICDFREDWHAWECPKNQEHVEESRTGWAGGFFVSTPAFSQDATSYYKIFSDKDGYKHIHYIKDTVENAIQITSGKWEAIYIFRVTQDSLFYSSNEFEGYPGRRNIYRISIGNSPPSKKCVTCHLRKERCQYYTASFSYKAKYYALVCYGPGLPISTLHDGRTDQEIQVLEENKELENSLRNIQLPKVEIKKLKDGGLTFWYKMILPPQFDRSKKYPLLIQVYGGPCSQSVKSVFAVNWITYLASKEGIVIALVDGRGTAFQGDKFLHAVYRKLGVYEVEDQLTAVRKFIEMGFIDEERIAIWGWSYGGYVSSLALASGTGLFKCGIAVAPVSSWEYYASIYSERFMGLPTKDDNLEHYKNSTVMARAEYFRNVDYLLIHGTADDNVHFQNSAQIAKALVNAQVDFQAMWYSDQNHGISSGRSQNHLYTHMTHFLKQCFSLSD
Put plainly: FACS, 293FF cells transfected with moFAP, IgG at 2.5 ug/ml. Here is the method:
The binding of all test and control antibodies to the cells was tested at a single concentration of 2.5 ug/ml. Goat-anti-human IgG F(ab)2-PE (Invitrogen, H10104) was used as secondary antibody (1:100 in FACS buffer). Ab0625 was used at 10 ug/ml and its binding was detected using Ab0250 (Becton Dickinson, 550767) (1:100 in FACS buffer). The FACS buffer containing PBS (Gibco, cat. #10010-015), 0.5% BSA (Thermo Scientific, cat. #37525), and 2 mM EDTA (Invitrogen, cat. #15575-020) was kept ice cold throughout the assay.
The target cells were harvested, counted, and centrifuged for 5 min at 300 g at 4 °C. Cells were then resuspended in FACS buffer at a concentration of 1×10⁶ cells/ml and transferred (200,000 cells/well) to a U-bottom 96-well FACS plate (BD, cat. #353910). Cells were then centrifuged for 3 min at 300 g at 4° C. and supernatant was discarded. 50 μl of primary antibody solutions were added to the cells, mixed, and incubated for 30 min at 2-8° C. in the dark. Cells were washed by adding 150 μl FACS buffer and centrifuged for 3 min at 300 g at 4° C. Supernatant was discarded, and cells were washed again by adding 200 μl FACS buffer to the plate. Cells were then centrifuged for 3 min at 300 g at 4° C. and afterwards the supernatant was discarded. 50 μl of secondary antibody solutions were added to the cells, mixed, and incubated for 30 min at 2-8° C. in the dark. […]
A general note: A flow cytometer gives signals particle by particle.

B1: anti-human FAP bivalent monospecific IgG comprising heavy chain variable region SEQ ID NO: 69 (antibody, V domains shown)
VH: EVQLVETGGGLIQPGGSLRLSCAASGFTVSSNYMSWVRQAPGKGLEWVSVIYSGGSTYYADSVKGRFTISRDNSKNTLYLQMNSLRAEDTAVYYCARGPTDAYPYLDYLWGQGTLVTVSS
VL: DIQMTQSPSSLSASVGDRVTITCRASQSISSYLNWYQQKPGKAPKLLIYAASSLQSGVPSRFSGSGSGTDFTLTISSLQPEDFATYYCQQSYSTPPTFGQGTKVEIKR
notes: IgG1 format, common light chain VK1-39/JK1; also called human/mouse cross-reactive FAP IgG
In the case of B1, the binding result is “binds”.
